One data set concerns the target T1, ICE (Homo sapiens, UniProt P29466).
T1 sequence (P29466 120-404): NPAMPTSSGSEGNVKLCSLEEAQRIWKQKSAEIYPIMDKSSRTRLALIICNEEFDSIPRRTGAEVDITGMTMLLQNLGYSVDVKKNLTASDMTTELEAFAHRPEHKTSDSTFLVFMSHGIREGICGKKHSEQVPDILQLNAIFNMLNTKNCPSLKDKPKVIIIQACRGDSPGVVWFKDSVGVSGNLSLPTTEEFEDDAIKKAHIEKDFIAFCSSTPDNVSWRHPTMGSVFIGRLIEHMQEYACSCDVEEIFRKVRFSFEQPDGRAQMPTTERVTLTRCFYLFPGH
As to the kind of experiment: Inhibition of ICE cleavage of pIL-1β, SDS-PAGE and Western blotting. The class given is biochemical. Also on record: expressed in transfected cells; host or cells: COS-7 cells transfected with pSG5-ICE cDNA, or alternatively lysate of freshly isolated human monocytes. Particulars: pIL-1β 5 ng incubated with ICE; peptides 100, 300 or 1,000 μM; Western blotting. The protocol:
cDNA coding for human ICE has been amplified by PCR. The sequence was confirmed and the cDNA was subcloned into pSG5 expression vector. COS cells were transfected with empty vector (mock) or vector containing ICE cDNA and after 48 hours, cells were analysed for the expression of ICE specific mRNA.
A monocyte lysate, prepared as previously described (11), was also able to convert pIL-1β into a mature form (FIG. 2). Therefore, recombinant ICE or freshly isolated human monocytes were used as a source of ICE enzymatic activity for further experiments.
A source of ICE activity was prepared and its ability to cleave pIL-1β was tested by incubating the reaction at 37° C. for 1 hour. The mixture was then run on SDS-PAGE and the presence of pIL1-β or the mature form was evidenced by Western Blotting.
On the technique in general: A western blot detects proteins with antibodies after separation by electrophoresis.

In data set [1] the target is Human recombinant IL-1β precursor, P01584.
Human recombinant IL-1β precursor, P01584, sequence (P01584 whole entry, looked up): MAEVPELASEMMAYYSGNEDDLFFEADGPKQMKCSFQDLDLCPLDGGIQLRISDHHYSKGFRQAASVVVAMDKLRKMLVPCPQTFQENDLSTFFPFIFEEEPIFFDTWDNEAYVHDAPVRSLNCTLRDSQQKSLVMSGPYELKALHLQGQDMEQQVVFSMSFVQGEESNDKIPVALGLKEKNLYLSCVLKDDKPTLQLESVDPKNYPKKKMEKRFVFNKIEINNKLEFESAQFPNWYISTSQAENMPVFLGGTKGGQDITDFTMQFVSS

On to “peptide C: SEQ ID NO:4, designed on the basis of icIL-1raII sequence (MALADLYEEGGGGGGEGEDNADSK)”, for which the “inhibition of ICE activity (FIG. 6)” value with ICE is listed as “inhibition of ICE activity”.
In the case of “peptide S: SEQ ID NO:5, identical to peptide C except for two Ala substituting the two Asp residues (MALAALYEEGGGGGGEGEDNAASK)”, the “inhibition of ICE activity (FIG. 6)” value in the data set with ICE is listed as “inhibition of ICE activity”.

B1: ICE (Interleukin-1β-Converting Enzyme), human (protein)
chain: MADKVLKEKRKLFIRSMGEGTINGLLDELLQTRVLNKEEMEKVKRENATVMDKTRALIDSVIPKGAQACQICITYICEEDSYLAGTLGLSADQTSGNYLNMQDSQGVLSSFPAPQAVQDNPAMPTSSGSEGNVKLCSLEEAQRIWKQKSAEIYPIMDKSSRTRLALIICNEEFDSIPRRTGAEVDITGMTMLLQNLGYSVDVKKNLTASDMTTELEAFAHRPEHKTSDSTFLVFMSHGIREGICGKKHSEQVPDILQLNAIFNMLNTKNCPSLKDKPKVIIIQACRGDSPGVVWFKDSVGVSGNLSLPTTEEFEDDAIKKAHIEKDFIAFCSSTPDNVSWRHPTMGSVFIGRLIEHMQEYACSCDVEEIFRKVRFSFEQPDGRAQMPTTERVTLTRCFYLFPGH
For the molecule B1, the “conversion of pIL-1β into the mature form (Western blotting after 60 minutes at 37° C.)” value in data set [1] is on record as “A monocyte lysate, prepared as previously described (11), was also able to convert pIL-1β into a mature form”.

The record behind these values is US6380162B1, “Ice inhibiting peptides” (Applied Research Systems ARS Holding N.V., priority 1999, dated 2002).
